The values below come from patent US20150259408A1 (PROTHENA BIOSCIENCES, published 2015).

Assay [1] deals with T1, recombinant mouse His-laminin-α4 (R&D Systems) (mouse, UniProt P97927 826-1816, limits assumed).
T1 construct: range 826-end (only the start, Q826, is stated); Bought protein; also called Murine LAMA4; not shown: 6x His tag
T1 sequence (looked up): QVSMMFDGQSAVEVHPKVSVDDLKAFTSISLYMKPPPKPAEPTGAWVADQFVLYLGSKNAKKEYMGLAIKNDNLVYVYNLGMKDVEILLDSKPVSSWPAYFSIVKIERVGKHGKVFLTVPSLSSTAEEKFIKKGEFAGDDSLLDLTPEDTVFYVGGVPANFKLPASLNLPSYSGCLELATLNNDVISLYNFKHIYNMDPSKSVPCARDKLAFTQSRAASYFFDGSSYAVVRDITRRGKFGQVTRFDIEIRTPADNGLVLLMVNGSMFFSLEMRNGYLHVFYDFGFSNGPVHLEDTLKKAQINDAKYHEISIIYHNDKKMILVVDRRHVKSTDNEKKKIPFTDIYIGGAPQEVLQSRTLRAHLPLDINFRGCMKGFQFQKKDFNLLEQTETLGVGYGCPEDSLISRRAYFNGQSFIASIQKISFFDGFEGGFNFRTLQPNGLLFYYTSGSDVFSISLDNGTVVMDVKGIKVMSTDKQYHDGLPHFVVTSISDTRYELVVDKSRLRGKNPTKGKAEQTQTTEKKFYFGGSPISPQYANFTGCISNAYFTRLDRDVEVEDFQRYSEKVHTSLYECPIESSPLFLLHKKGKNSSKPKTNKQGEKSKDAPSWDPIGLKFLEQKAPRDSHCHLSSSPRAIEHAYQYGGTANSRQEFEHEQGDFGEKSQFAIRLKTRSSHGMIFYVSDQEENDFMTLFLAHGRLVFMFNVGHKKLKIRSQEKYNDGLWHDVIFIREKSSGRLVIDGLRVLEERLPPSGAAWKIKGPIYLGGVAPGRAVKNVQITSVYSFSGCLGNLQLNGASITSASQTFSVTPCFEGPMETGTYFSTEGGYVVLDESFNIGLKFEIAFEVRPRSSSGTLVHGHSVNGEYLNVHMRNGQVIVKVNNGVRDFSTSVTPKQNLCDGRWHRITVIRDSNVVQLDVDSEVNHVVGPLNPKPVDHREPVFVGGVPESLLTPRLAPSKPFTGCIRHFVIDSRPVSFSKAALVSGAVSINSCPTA
In words: SPR (Biacore T200); Fab or captured-IgG format not given.

Assay [2] deals with T2, recombinant human His-laminin-α4 (R&D Systems) (human, UniProt Q16363-2 826-1816, limits assumed).
T2 construct: range 826-end (only the start, Q826, is stated); Bought protein; also called Human LAMA4; human His-laminin-α4 fragment starting at Q826; not shown: 6x His tag
T2 sequence (looked up): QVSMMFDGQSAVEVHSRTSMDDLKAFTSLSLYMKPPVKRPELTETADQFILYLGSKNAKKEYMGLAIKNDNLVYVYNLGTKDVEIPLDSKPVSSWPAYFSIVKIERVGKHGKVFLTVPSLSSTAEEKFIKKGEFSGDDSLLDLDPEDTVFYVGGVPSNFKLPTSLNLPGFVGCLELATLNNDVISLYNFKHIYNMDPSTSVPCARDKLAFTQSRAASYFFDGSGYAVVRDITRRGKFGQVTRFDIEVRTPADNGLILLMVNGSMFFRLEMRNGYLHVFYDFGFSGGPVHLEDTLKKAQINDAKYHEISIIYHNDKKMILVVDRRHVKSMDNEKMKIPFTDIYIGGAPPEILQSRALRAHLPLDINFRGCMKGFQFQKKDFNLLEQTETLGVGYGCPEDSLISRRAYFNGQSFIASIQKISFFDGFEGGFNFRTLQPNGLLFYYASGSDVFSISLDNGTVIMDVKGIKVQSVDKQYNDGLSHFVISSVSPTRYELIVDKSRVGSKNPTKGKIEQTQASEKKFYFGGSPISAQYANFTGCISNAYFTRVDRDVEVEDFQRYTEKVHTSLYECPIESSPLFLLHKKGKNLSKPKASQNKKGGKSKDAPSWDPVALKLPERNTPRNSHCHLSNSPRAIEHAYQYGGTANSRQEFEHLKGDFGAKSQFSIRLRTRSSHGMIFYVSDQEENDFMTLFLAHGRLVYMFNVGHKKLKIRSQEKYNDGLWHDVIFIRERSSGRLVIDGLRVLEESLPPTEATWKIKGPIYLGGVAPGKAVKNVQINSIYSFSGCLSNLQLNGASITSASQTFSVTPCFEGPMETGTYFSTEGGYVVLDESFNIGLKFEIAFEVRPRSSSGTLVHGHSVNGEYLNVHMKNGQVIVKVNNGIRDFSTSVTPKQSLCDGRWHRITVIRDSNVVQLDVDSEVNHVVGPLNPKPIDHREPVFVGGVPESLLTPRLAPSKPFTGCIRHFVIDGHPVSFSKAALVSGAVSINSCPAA
The assay is described as above.

For assay [3], the target named is recombinant LG4-5 of LAMA4 coated on ELISA plates. As to the kind of experiment: cell-based or functional assay.
The target of assay [4] is T3, human LAMA4 LG1-3 fragment displayed on 293 cells (pDisplay) (human, UniProt Q16363 830-1430, limits assumed).
T3 sequence: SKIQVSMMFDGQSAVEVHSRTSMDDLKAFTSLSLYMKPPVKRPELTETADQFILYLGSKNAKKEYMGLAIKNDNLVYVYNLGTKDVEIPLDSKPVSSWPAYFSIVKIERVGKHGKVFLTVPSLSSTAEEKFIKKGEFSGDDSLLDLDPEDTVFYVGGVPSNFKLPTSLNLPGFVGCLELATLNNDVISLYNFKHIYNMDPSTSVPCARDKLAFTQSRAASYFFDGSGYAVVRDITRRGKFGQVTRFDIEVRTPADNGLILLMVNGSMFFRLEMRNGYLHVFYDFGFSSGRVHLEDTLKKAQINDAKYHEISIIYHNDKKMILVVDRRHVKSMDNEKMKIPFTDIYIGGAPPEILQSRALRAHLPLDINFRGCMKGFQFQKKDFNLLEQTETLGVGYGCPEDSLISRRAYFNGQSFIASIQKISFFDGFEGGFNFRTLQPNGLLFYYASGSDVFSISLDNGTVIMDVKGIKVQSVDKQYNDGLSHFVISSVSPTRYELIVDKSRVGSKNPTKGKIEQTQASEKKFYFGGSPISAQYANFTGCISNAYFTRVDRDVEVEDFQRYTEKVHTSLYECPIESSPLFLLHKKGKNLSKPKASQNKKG
As to the kind of experiment: flow cytometry on 293 cells displaying LAMA4 fragments (pDisplay). The procedure: Monoclonal antibodies against the LG4-5 modules of the G domain of LAMA4 were generated as described in Materials and Methods. The specific binding between the monoclonal antibodies and the LG4-5 modules of the G domain of LAMA4 was confirmed by assessing the monoclonal antibodies' ability to stain LAMA4-fragment-displaying human embryonic kidney 293 cells by flow cytometry. Fluorescent signal was assessed via flow cytometric analyses and plotted as mean fluorescence intensity (MFI) as shown in FIG. 1. A LG1-3-specific LAMA4 antibody was able to bind 293 cells displaying LG1-5 and LG1-3, but not LG4-5 of the LAMA4 protein. Conversely, clones 6C12, 13G10, and 15F7 were able to specifically bind 293 cells displaying LG1-5 and LG4-5, but not LG1-3.
Human LAMA4 G-domains 1-5 and variants were cloned into pDisplay expression construct (Life Technologies) and transiently transfected into 293 cells using standard procedures. Anti-LAMA4 antibodies were incubated with cells for 30 min at 4° C. and followed by anti-mouse-650 for 30 minutes at 4° C. Cells were analyzed for anti-laminin binding by flow cytometry using standard procedures.

Assay [5] has as its target laminin 411 (LAMA4 in complex with gamma1 and beta1 chains). In words: cell-based or functional assay.

B1: mouse monoclonal antibody 6C12 (antibody, V domains shown)
VH: QVQLQQPGAELVKPGASVKLSCKASGYTFTTYWMHWVKQRPGQGPEWIGMIHPYSGAINYNEKFKSKATLTVDKSSSTAYMQLSSLTSEDSAVYYCVKQLRLLYYFDYWGQGTTLTVSS
VL: DIVMTQSPSSLTVTAGEKVTMSCKSRQSLLNSGNQKNYLTWYQQKPGQPPKVLIYWASTRESGVPDRFTGSGSGTDFTLTISSVQAEDLAVYYCQNDYSYPLTFGAGTKLELKR
In the case of B1, in assay [1], the Kd was 2.38 nM, the koff came to 0.00111 s⁻¹ and the kon came out at 469000 M⁻¹ s⁻¹. Also, in assay [2], the Kd turned out to be 3.11 nM, the koff amounted to 0.00102 s⁻¹ and the kon worked out at 328000 M⁻¹ s⁻¹. The “inhibition of LAMA4-mediated WM-266-4 human melanoma cell adhesion (antibody at 20 ug/ml)” value (“inhibition … (antibody at 20 ug/ml)” below) in assay [3] is no less than 35%. Also, the binding result in assay [4] is reported as “no binding”.

B2: mouse monoclonal antibody 15F7 (antibody, V domains shown)
VH: QVQLQQSGTELARPGAAVKLSCKASGYTFTSYGLSWVKQRAGQGLEWIGEIFPRSGNTYYNEKFKGKATLTADKSSSTAYMELRSLTSEDSAVYFCARGVRSPGAMDYWGQGTSVTVSS
VL: DIQMTQSSSSFSVSLGDRVTITCKASEDIYNRLAWYQQKPGNAPRLLISGATSLETGVPSRFSGSGSGKDYTLSITSLQTEDVATYYCQQYWSIPYTFGGGTNLEIKR
notes: Mouse hybridoma antibody; Mouse IgG1 is used as its control; also called m15F7; LG4-5-specific antibody 15F7
B2: in assay [1], the Kd is 0.627 nM, the koff stood at 0.000658 s⁻¹ and the kon was 1.05e+06 M⁻¹ s⁻¹. Moreover, in assay [2], the Kd worked out at 0.684 nM, the koff was 0.000781 s⁻¹ and the kon came out at 1.14e+06 M⁻¹ s⁻¹. Also, the “inhibition … (antibody at 20 ug/ml)” value in assay [3] is no less than 35%. The “inhibition of laminin-411-induced pAkt activation (pAkt/Akt ratio by immunoblot, WM266.4 cells; 20 ug/ml 15F7, 10 ug/ml laminin 411)” value in assay [5] is roughly 50%. Moreover, the binding result in assay [4] is on record as “no binding”.

B3: mouse monoclonal antibody 13G10 (antibody, V domains shown)
VH: QVQLQQSGAELARPGASVKLSCKASGYTFTNYGISWVKQRTGQGLEWIGAIYPRSGNTYYNEKFKGKATLTADKSSSTAYMELRSLTSEDSAVYFCARERDYGSSYALDYWGQGTSVTVSS
VL: DIQMTQSSSSFSVSLGDRVTITCKASEDIYNRLAWYQQKPGNAPRLLISGATSLETGVPSRFTGSGSGKDYTLSITSLQTEDVATYYCQQYWSPPRTFGGGTKLEIKR
With B3, in assay [1], the Kd stood at 11.9 nM, the koff was found to be 0.00449 s⁻¹ and the kon is 378000 M⁻¹ s⁻¹. Also, in assay [2], the Kd stood at 24.4 nM, the koff was found to be 0.0074 s⁻¹ and the kon is 302000 M⁻¹ s⁻¹. Also, in assay [3], the “inhibition … (antibody at 20 ug/ml)” value is no less than 35%. Further, the binding result in assay [4] was “no binding”.
